# From the nanobody polyreactivity screen of Harvey et al. (2022)
# Assay: yeast display, Sf9 membrane polyspecificity reagent, FACS + sequencing; frameworks hold sequencing errors
# Summary of the method: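 Nanobodies from a synthetic yeast display library (Saccharomyces cerevisiae BJ5465), induced 36–48 hours with galactose, were stained 1 hour at 4 °C with 10% biotinylated, detergent-solubilized Sf9 membrane reagent, enriched on streptavidin microbeads, then FACS-sorted. Anti-HA (expression) and streptavidin (reagent binding) fluorescence set low and high (top ~1%) gates. Polyreactivity labels come from the gate of origin. Genes were colony-PCR amplified, MiSeq 2 × 250 sequenced and filtered by CDR length.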
row,Sequence,polyreactivity (PSR sort gate)
1,QVQLVESGGGLVQAGGRLRLSCAASGITFYENAMGWYRQAPGKERELVAAISYSGGNTYPDSVKGRFTISRDNEKNTVYLQMNSLKPEDTAVYYCNADYAGWGEYDYCGQGTQVTVSS,low polyreactivity
2,QVQLVESGGGLVQAGGRLRLSCAASGLIFDDYAMGWYRQAPGKERALVAAIDWGGGSTYYADSVKGRFTISRDNAKNTVYLQMNSLTPEHTAVYYCAADSYFSYRYNYWGQGTQVTVSS,low polyreactivity
3,QVQLVESGGGLVQAGGRLRLSCAASGLTFGRYAMGWYRQAPGKERELVAVINGSGGNTYYADSVKGRFTISRDNAKNTVYLQMNSLKPEDTAVYYCAARRTVQYTLYYYPDYNYWGQGTQVTVSS,low polyreactivity
4,QVQLVESGGGLVQAGGRLRLSCAASGLTYTRYTMGWYRPAPGKERELVAAITSSGGSTYYADSVKGRFTISRDNAKNTVFLQMNSLKPEDTAVYFCAARYPGTRGDGYWGQGTQVTVSS,high polyreactivity
5,QVQLVESGGGLVQAGGRLRLSCAASGNIFYPNAMGWYRQAPGKERELVAAISSSGGSTYYADSVKGRFTISRDNAKNTVYLQMNSLKPEDTAVYYCAKDRSYAYYWWPYPTGYDYWGQGTQVTVSS,low polyreactivity
6,QVQLVESGGGLVQAGGRLRLSCAASGRIFGWIAMGWSRQAPGKDRELVAAISADGNTYSADSVKGRFTISRDNAKNTVYVQKNSLKPEDTAVSYCAAESWSADFSWYDYWGQGTQVTVSS,high polyreactivity
7,QVQLVESGGGLVQAGGRLRLSCAASGRIFPYYAMGWYRQAPGKEREFVAAITSSGGSTYYADSVKGRFTISRDNAKYTVYLQMNSLIPEDSAVYYCFAVRHFGLYAGRPYDYWGQGTQVTVSS,low polyreactivity
8,QVQLVESGGGLVQAGGRLRLSCAASGRIFSQYSMGWYRQAPGKERELVAAISSRGGRTYYADSVKGRFTFSRDNAKNTVYLQMNSLKPEDTAVYYCAAYVYPWGRDYWGQGTQVTVSS,high polyreactivity
9,QVQLVESGGGLVQAGGRLRLSCAASGRIFSYNAMGWYRQAPGKERELVAGITSGGRTYYADSVKGRFTISRDNAKNTVYLQMNSLKPEDTAVYYCAARYVPARTRYYYWGQGTQVTVSS,high polyreactivity
10,QVQLVESGGGLVQAGGRLRLSCAASGRIFVHNAMGWYRQAPGKERELVAAISQNGGRTYYADSVKGRFTISRDNAKNTVYLQLNSLKPEDTAVYYCAAGQARAGLIGGYWGQGTQVTVSS,high polyreactivity
11,QVQLVESGGGLVQAGGRLRLSCAASGRIFVIKSMGWYRQAPAKERELVAAISKRGGSTYYADSVKGRFTISRDNAKNTVYLQMNSLKPEDTAVYYCAARFKTTGYDYWGQGTQVTVSS,high polyreactivity
12,QVQLVESGGGLVQAGGRLRLSCAASGRIFVYNAMGWYRQAPGKERELVAAINYRGTRTYYADSVKGRFTISRDNAKNTVYLQLNSLKPEDTAVYYCATYLVTGGGLNVRYDYWGQGTQVTVSS,high polyreactivity
13,QVQLVESGGGLVQAGGRLRLSCAASGRTFAFYTMGWYRQAPGKEREFVAAISWSGGSTHYADSVKGRFTISRDNAKNTVYLQMNSLKPEDTAVYYCDAGPFYRFTDGRYKTLDYWGQGTQVTVSS,high polyreactivity
14,QVQLVESGGGLVQAGGRLRLSCAASGRTFDTNAMGWYRQAPGKQRELVAVITARGGNTSYADSVKGRFTISRDYAKNTVYLLMNRLKPEDTAVYLCAARVYRAPWTYVEGNYWGQGTQVTVSS,low polyreactivity
15,QVQLVESGGGLVQAGGRLRLSCAASGRTFDVYAMVWYRQAPGKERELVAAISKRGGSTYYADSVKGRFTISRDNAKNTVYLQMNSLKPEDTAVYYCNAYQTGWKGYDYWGQGTQVTVSS,high polyreactivity
16,QVQLVESGGGLVQAGGRLRLSCAASGRTFGPNVMGWYRQAPGKERELVAAITSGGTTYYADSVKGRFTISRDNAKNTVYLQMTSLIPADTAVYYCAATFYPYQVHHYYYWGQGTQVTVSS,low polyreactivity
17,QVQLVESGGGLVQAGGRLRLSCAASGRTFHYYALGWYRQATGKERELVAVIRYSGGRTYYADTVKGRFTISRDNAKNTVYLQMNSLKPEDTAVYYCNKGRWRTDPPVYLIAFDYWGQGTQVTVSS,low polyreactivity
18,QVQLVESGGGLVQAGGRLRLSCAASGRTFLYYAMGWSRQAPGKERELVAAINWRGTRTYYADSVKGRFTISRDNAQNTVYLQMNSLKPEDTAVYYCNRQGPDFHLRAGQGNYWGQGTQVTVSS,high polyreactivity
19,QVQLVESGGGLVQAGGRLRLSCAASGRTFRYYGMGWYRQAPWKERELVAAISWSGGSTYYADSVKGRFTISRDNAKNTVYLQMNSLTPEDTAVYYCNVDFHWQRFHHKSAAYDYWGQGTQVTVSS,high polyreactivity
20,QVQLVESGGGLVQAGGRLRLSCAASGRTFSPYAMGWYREAPGKEREFVAASTWSAGRTYYADSVKGRFTISRDNAKNTVYLQMNSLKPEDTAVYYCNARDRSITYPRYDYWGQGTQVTVSS,high polyreactivity
21,QVQLVESGGGLVQAGGRLRLSCAASGRTFYGFAMGWYRQAPGKERELVASISRDGSTNYADSVKGRFTISRDNAKNTVYLQMNSLKPEDNAVYYCAADIWYYRYPIYYYSYDYWGQGTQVTVSS,low polyreactivity
22,QVQLVESGGGLVQAGGRLRLSCAASGRTFYGYAMGWYSPAPGKERELVAAITNGGRTYYADSVKGRFTISRDNAKNTVYLQMNSLKPEATAVYYCAAGPGRGRSTLGSYYWGQGTQVTVSS,high polyreactivity

row,Sequence,polyreactivity (PSR sort gate)
1,QVQLVESGGGLVQAGGRLRLSCAASGRTFYYYAMGWYRQAPGKERELVAAISWSGGRTYYADSVKGRFTISRDNAKNTVYLQMNSLKPEDTAVYYCNAETAAAQASYDRLDVLLDYWGQGTQVTVSS,low polyreactivity
2,QVQLVESGGGLVQAGGRLRLSCAASGRTIANYAMGWYRQAPGKERELVAAISFSTVSTYYADSVKGRFTISRDNAKNTVYLQMNSLKPEDTAVYYCAARRLGYYRKVKELDYWGQGTQVTVSS,high polyreactivity
3,QVQLVESGGGLVQAGGRLRLSCAASGSIFGVYAMGWYRQSPGKERELVATISRSGAITYYADSVKGRFTISRDNAKNTVYLQMNSLKPEDTAVYYCAADFFSRDWGQGTQVTVSS,low polyreactivity
4,QVQLVESGGGLVQAGGRLRLSCAASGSIFITYDMGWYRQAPGKERELVATISTTGGTTYYADSVKGRFTISRDNAMNTVYLQMNSLKPEDTAVYYCAADWRYLYYALDYWGQGTQVTVSS,low polyreactivity
5,QVQLVESGGGLVQAGGRLRLSCAASGSIFNSYAMGWYRQAPGTEREFVASIPKSGGTTYYADSVKGRFTISRDNAKNTVYLQMNSLKPEDTAVYYCAADWYRSSWTYNYWGQGTQVTLSS,low polyreactivity
6,QVQLVESGGGLVQAGGRLRLSCAASGSIFPQYAMGWYRQAPGKERELVAAITWSGSRTRYADSVKGRFTISRDNAKNTVYLQMNSLKPEDTAVYYCAARVNGQTYYYWGQGTQVTVSS,high polyreactivity
7,QVQLVESGGGLVQAGGRLRLSCAASGSIFVPNAMGGYRQAPGKERELVAAISGIGGSTSYADSEKGRFTISRDNAKNTVDLHMNSLQQEDTAVYYCARADKLHTRGWGRWGSGSYSWGQGTQVTVSS,low polyreactivity
8,QVQLVESGGGLVQAGGRLRLSCAASGSIFYRSAMGWYRQAPGKERELVAAITRSDGRTYYADSVKGRFTISRDNAKNTVYLQMNSLKPEDTAVYYCNKDGAYKTAYKRWTLYDYWGQGTQVTVSS,low polyreactivity
9,QVQLVESGGGLVQAGGRLRLSCAASGSISNRYAMGWYRQAPGKERELVAAISTGGGTTYYADSVKGRFTISRDNAKNTVYLQMNSLKPEDTAVYYCAADDWRYYRELDYWGQGTQVTVSS,low polyreactivity
10,QVQLVESGGGLVQAGGRLRLSCAASGSNFGSNAMGWYRQAPGKESEFVAVITCRVGDTYYADSVKGRFTISRDNAKNTVYLQMYSLKPEDTAVYYCNVDWKVYGAPDYRIAWKYDYWGQGTQVTVSS,low polyreactivity
11,QVQLVESGGGLVQAGGRLRLSCAASGSSFLGYVMGWSRQAPGKERELVAAITRSGGRTYYADSVKGRFTISRDNAKNTVYLQMTSLNPEDTAVYYCAALRGPSFHGYGYWGQGSQVTVSS,high polyreactivity
12,QVQLVESGGGLVQAGGRLRLSCAASGSTCGPYTLGWYRQAPGTEREVVATISSGGSTYYADSVKWRFTISRDNAKNTVYLQMNSLKPEDTAVYFCNKDFFYLRTWRSVYEFEYWGQGTQVTVSS,low polyreactivity
13,QVQLVESGGGLVQAGGRLRLSCAASGSTFEINVMGWYRQAPGKERELFAAITYSGGSTYYADSVKGRFTISRDNEKNTVYLQMNSLKPEDTAVYYWNADYILDAQYDYWGQGTQVTVSS,low polyreactivity
14,QVQLVESGGGLVQAGGRLRLSCAASGSTFGFNAMGWSREAPGKERELVAASNDSGGDTYYADSVKGRFTSSRDNAKNTVYLQMNSLKPEDTAVYYCAADEPSSVYGILVELEYWGQGTQVTVST,high polyreactivity
15,QVQLVESGGGLVQAGGRLRLSCAASGSTFGINAMGWYRQAPGKERELVAAITSTGRTYYADSVKGRFTISRDNAKNTVYLQMNSLKPEDTAVYYCAAVWRYKGLLLPSYYYWGQGTQVTVSS,high polyreactivity
16,QVQLVESGGGLVQAGGRLRLSCAASGSTFHYYAMGWDRQAPGKERELVAAISQSGSGTYYADSVKGLFTISRDNAKKTVYLQMNSLKPEDTAVYYCAKDITGLSRYRRDYWGQGTQVTVSS,low polyreactivity
17,QVQLVESGGGLVQAGGRLRLSCAASGSTFQFYAMGWYRQAPGKERELVAAITSSGSSTYYADSVKGRFTISRDNAKNTVYLQMNSLKPEDTAVYYCAARYYGYSVSYYYWGQGTQVTVSS,high polyreactivity
18,QVQLVESGGGLVQAGGRLRLSCAASGSTFSFNAMGWYRQAPGKERELVAAIRVSSGTTYYADSVKGRFTISRDNAKNTVYLQMNSLKPEDTAVYYCAARYYYDWRQYGYWGQGTQVTVSS,high polyreactivity
19,QVQLVESGGGLVQAGGRLRLSCAASGSTFWGYTMGWYRQAPGKERELVAAISTIGGSTYYADSVKGRFTISRDNAKNTVYLQMNSLKTEDTAVYYCAAYKGKHYKEGYWGQGTQVTVSS,low polyreactivity
20,QVQLVESGGGLVQAGGRLRLSCAASGSTFWYYAMGWSRQAPGKEREFVAAITTGGSSTYYADSVKGRFTISRDNAKNTVYLQMNSLKPEDTAVYYCAARGWRSPYAYYYWGQGTQVTVSS,high polyreactivity
21,QVQLVESGGGLVQAGGRLRLSCAASGTFRRNAMGWYRQAPGKERELVAAIRWSGGITYYADSVKGRFTISRDNAKNTVYLQMNSLKPEDTADYYCSGQRYYGFGKTYYYWGQGTQVTVSS,high polyreactivity
